Source: publication PMC11549370, “Two distinct regulatory pathways govern Cct2-Atg8 binding in the process of solid aggrephagy” (EMBO Reports, 2024)

Assays:
Atg11 = Atg11 (UniProt Q12527); test: anti-FLAG co-IP, anti-HA blot; settings: reference: wild-type 3×HA-Cct2; sites S412,S470
LC3C = LC3C (UniProt Q9BXW4); test: anti-FLAG co-IP, anti-HA blot; settings: reference: HA-CCT2 wild type; sites S458
[1] = molecular target: T1, GST-Cct2 S412A-S470A (2A) (S. cerevisiae, UniProt P39076 1-527, S412A | S470A); test: pull-down; in vitro GST pulldown: GST-tagged protein on GST beads, prey added in binding buffer B (1 mM EDTA, 1 mM EGTA, 150 mM NaCl, 1% Triton X-100 in 1×PBS), 3 h, 4 °C; SDS-PAGE, Coomassie staining; settings: both partners purified
T1 construct: Cct2, S. cerevisiae; also called Cct2-2A mutant protein; pGEX-4T-1-Cct2 S412A-S470A(2A); source: E. coli, purified; not shown: GST, N-terminal, kept
T1 sequence (P39076 whole entry S412A/S470A): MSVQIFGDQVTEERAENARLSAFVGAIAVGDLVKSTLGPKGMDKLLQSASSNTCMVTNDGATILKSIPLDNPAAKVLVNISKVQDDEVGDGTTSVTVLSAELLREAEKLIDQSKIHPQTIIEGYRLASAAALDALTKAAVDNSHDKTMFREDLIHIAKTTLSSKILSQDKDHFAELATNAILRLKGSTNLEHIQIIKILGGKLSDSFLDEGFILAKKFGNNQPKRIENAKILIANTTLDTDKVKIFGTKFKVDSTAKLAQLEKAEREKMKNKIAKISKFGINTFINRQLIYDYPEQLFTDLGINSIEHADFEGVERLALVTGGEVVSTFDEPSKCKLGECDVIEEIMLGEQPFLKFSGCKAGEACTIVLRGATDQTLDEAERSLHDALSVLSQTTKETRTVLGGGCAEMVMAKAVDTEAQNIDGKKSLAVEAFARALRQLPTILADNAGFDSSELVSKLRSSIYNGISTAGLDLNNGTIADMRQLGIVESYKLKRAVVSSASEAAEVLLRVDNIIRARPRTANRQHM

GST-Cct2 = molecular target: T2, GST-Cct2 (S. cerevisiae, UniProt P39076 1-527); test: as above; settings: both partners purified
T2 construct: Cct2, subunit of the TRiC complex, S. cerevisiae; the CCT2 gene cloned into pGEX-4T-1; also called WT GST-Cct2; pGEX-4T-1-Cct2; source: E. coli, purified; not shown: GST, N-terminal, kept
T2 sequence (P39076 whole entry): as the sequence (P39076 whole entry S412A/S470A) above, with A412S, A470S counted along it

GST-Cct2 D473A = molecular target: T3, GST-Cct2 D473A (S. cerevisiae, UniProt P39076 1-527, D473A); test: as above; settings: both partners purified
T3 construct: Cct2, S. cerevisiae; also called pGEX-4T-1-Cct2 D473A; source: E. coli, purified; not shown: GST, N-terminal, kept
T3 sequence (P39076 whole entry D473A): as the sequence (P39076 whole entry S412A/S470A) above, with A412S, A470S, D473A counted along it

GST-Cct2 I487E = molecular target: T4, GST-Cct2 I487E (S. cerevisiae, UniProt P39076 1-527, I487E); test: as above; settings: both partners purified
T4 construct: Cct2, S. cerevisiae; also called pGEX-4T-1-Cct2 I487E; source: E. coli, purified; not shown: GST, N-terminal, kept
T4 sequence (P39076 whole entry I487E): as the sequence (P39076 whole entry S412A/S470A) above, with A412S, A470S, I487E counted along it

[2] = molecular target: T5, GST-Cct2 phosphorylated in vitro by Atg1 (S. cerevisiae, UniProt P39076 1-527, phosphorylated by Atg1; the paper maps the sites to S412 and S470); test: pull-down; GST-Cct2 first incubated with Atg1-3×FLAG and ATP (30 °C, 30 min), enriched on GST beads, then His-Atg8 or Atg11 CC4 added in interaction buffer (1 mM EDTA, 1 mM EGTA, 150 mM NaCl, 1% Triton X-100 in 1×PBS), 2 h, 4 °C; Coomassie staining; settings: both partners purified
T5 construct: Cct2, S. cerevisiae; also called phosphorylated GST-Cct2 WT; phosphorylated products; source: E. coli, purified, then incubated with WT Atg1-3×FLAG (from yeast) and ATP and enriched on GST beads; not shown: GST, N-terminal, kept
T5 sequence (P39076 whole entry): as the sequence (P39076 whole entry S412A/S470A) above, with A412S, A470S counted along it

Molecule: Cct2 (from UniProt P39076) 3×HA-Cct2 S412A-S470A
- binding against the reference (Atg11): weaker

Molecule: CCT2 (hCCT2) (from UniProt P78371) HA-CCT2 S458A
- binding against the reference (LC3C): weaker

B1: His-Atg8 (natural protein, S. cerevisiae, UniProt P38182 1-117, looked up)
chain: MKSTFKSEYPFEKRKAESERIADRFKNRIPVICEKAEKSDIPEIDKRKYLVPADLTVGQFVYVIRKRIMLPPEKAIFIFVNDTLPPTAALMSAIYQEHKDKDGFLYVTYSGENTFGR
notes: Atg8, S. cerevisiae; source: E. coli, purified; not shown: His, N-terminal, kept
- binding result [1]: binds
- binding result (GST-Cct2): binds
- binding result (GST-Cct2 D473A): binds
- binding result (GST-Cct2 I487E): binds
- binding result [2]: binds
